From publication PMC12042792, “Discovery of two novel cutinases from a gut yeast of plastic-eating mealworm for polyester depolymerization” (Applied and Environmental Microbiology, 2025)

Key:
Test in all cases: purified protein
Format in all cases: biochemical, Sakaguchia sp.
purified protein [1] = substrate: CCCC(=O)Oc1ccc([N+](=O)[O-])cc1
purified protein [2] = substrate: CCCCCCCC(=O)Oc1ccc([N+](=O)[O-])cc1
purified protein [3] = substrate: CCCCCCCCCCCCCC(=O)Oc1ccc([N+](=O)[O-])cc1
purified protein [4] = substrate: CCCCCCCCCCCC(=O)Oc1ccc([N+](=O)[O-])cc1
purified protein [5] = substrate: CC(=O)Oc1ccc([N+](=O)[O-])cc1
purified protein [6] = substrate: CCCCCCCCCCCCCCCC(=O)Oc1ccc([N+](=O)[O-])cc1
purified protein [7] = substrate: CCCCCC(=O)Oc1ccc([N+](=O)[O-])cc1
purified protein [8] = substrate: CCCCCCCCCC(=O)Oc1ccc([N+](=O)[O-])cc1
[9] = 50 mM Tris-HCl pH 7.5, optimal temperature (45 °C)
[10] = 50 mM Tris-HCl pH 7.5, optimal temperature (35 °C)

B1: SiCut2 (Sakaguchia sp.) (protein)
chain: TAIGERQLGCAPLELFHAAGTSEVGQGIIGRAYQSALPRAVSGATVTPVIYSTIAEYFTTVRAGAQTMQRQLTSRAAACPNTKFVLSGYSKGALVVHEVKLPAAIQSKVVAVTLFGDPKNGQFGSSVVPINNKACFFSFCNRGDVFCDRGISLAAHLAYATDGSVTTAARNIAECFNA
notes: no tag mentioned; diafiltered culture supernatant
Km (purified protein [1]; [9]): 2.82 ± 0.58 µM
kcat (purified protein [1]; [9]): 1.13 ± 0.066 s⁻¹
kcat/Km (purified protein [1]; [9]): 401000 ± 5000 M⁻¹ s⁻¹
Km (purified protein [2]; [9]): 0.89 ± 0.12 µM
kcat (purified protein [2]; [9]): 2.079 ± 0.0025 s⁻¹
kcat/Km (purified protein [2]; [9]): 2.344e+06 ± 13800 M⁻¹ s⁻¹
Km (purified protein [3]; [9]): 4.44 ± 0.5 µM
kcat (purified protein [3]; [9]): 0.832 ± 0.0117 s⁻¹
kcat/Km (purified protein [3]; [9]): 187000 ± 10000 M⁻¹ s⁻¹
Km (purified protein [4]; [9]): 2.22 ± 1.9 µM
kcat (purified protein [4]; [9]): 0.983 ± 0.035 s⁻¹
kcat/Km (purified protein [4]; [9]): 443000 ± 4330 M⁻¹ s⁻¹
Km (purified protein [5]; [9]): 6.18 ± 0.49 µM
kcat (purified protein [5]; [9]): 0.665 ± 0.07 s⁻¹
kcat/Km (purified protein [5]; [9]): 108000 ± 11300 M⁻¹ s⁻¹
Km (purified protein [6]; [9]): 4.01 ± 1.3 µM
kcat (purified protein [6]; [9]): 0.603 ± 0.0417 s⁻¹
kcat/Km (purified protein [6]; [9]): 150000 ± 3830 M⁻¹ s⁻¹
Km (purified protein [7]; [9]): 1.44 ± 1.51 µM
kcat (purified protein [7]; [9]): 1.26 ± 0.0175 s⁻¹
kcat/Km (purified protein [7]; [9]): 875000 ± 11700 M⁻¹ s⁻¹
Km (purified protein [8]; [9]): 2.47 ± 0.09 µM
kcat (purified protein [8]; [9]): 1.48 ± 0.0342 s⁻¹
kcat/Km (purified protein [8]; [9]): 600700 ± 667 M⁻¹ s⁻¹

B2: SiCut1 (Sakaguchia sp.) (protein)
chain: AAIAERQSSACAPLELYHAAGTSESGLGTVGRAFQTALPREVQGATVSPLNYNTNAEYSSTVTAGAQTFQQLLTSRAAACPNTKFVLSGYSKGALVVHKVTLPSAVQSKVVAITVFGDPQAGQFGATTVPINNKACFFSFCNRGDTFCDRGGNFAAHLAYATDGSVTTASRNIAGCYRA
notes: as for B1
Km (purified protein [1]; [10]): 1.73 ± 0.99 µM
kcat (purified protein [1]; [10]): 0.796 ± 0.00367 s⁻¹
kcat/Km (purified protein [1]; [10]): 459800 ± 2330 M⁻¹ s⁻¹
Km (purified protein [2]; [10]): 2.01 ± 0.63 µM
kcat (purified protein [2]; [10]): 1.002 ± 0.00267 s⁻¹
kcat/Km (purified protein [2]; [10]): 501000 ± 1500 M⁻¹ s⁻¹
Km (purified protein [3]; [10]): 3.46 ± 0.02 µM
kcat (purified protein [3]; [10]): 0.213 ± 0.00217 s⁻¹
kcat/Km (purified protein [3]; [10]): 61700 ± 1330 M⁻¹ s⁻¹
Km (purified protein [4]; [10]): 3.21 ± 0.63 µM
kcat (purified protein [4]; [10]): 0.7233 ± 0.00283 s⁻¹
kcat/Km (purified protein [4]; [10]): 225000 ± 500 M⁻¹ s⁻¹
Km (purified protein [5]; [10]): 9.12 ± 0.04 µM
kcat (purified protein [5]; [10]): 0.3212 ± 0.00267 s⁻¹
kcat/Km (purified protein [5]; [10]): 35200 ± 3000 M⁻¹ s⁻¹
Km (purified protein [6]; [10]): 7.09 ± 0.27 µM
kcat (purified protein [6]; [10]): 0.2155 ± 0.002 s⁻¹
kcat/Km (purified protein [6]; [10]): 30300 ± 2170 M⁻¹ s⁻¹
Km (purified protein [7]; [10]): 0.66 ± 2.77 µM
kcat (purified protein [7]; [10]): 0.8588 ± 0.00717 s⁻¹
kcat/Km (purified protein [7]; [10]): 1.305e+06 ± 1830 M⁻¹ s⁻¹
Km (purified protein [8]; [10]): 7.57 ± 0.01 µM
kcat (purified protein [8]; [10]): 0.672 ± 0.026 s⁻¹
kcat/Km (purified protein [8]; [10]): 88800 ± 3170 M⁻¹ s⁻¹
